# Experimental data reported in patent US20160137713A1 (HANALL BIOPHARMA, published 2016).
# T1: mouse FcRn on 3T3-L1 cells (mouse, UniProt Q61559 22-365; P01887 21-119)
# T1 construct: whole, on cells; also called NIH3T3L1
# T1 sequence (looked up): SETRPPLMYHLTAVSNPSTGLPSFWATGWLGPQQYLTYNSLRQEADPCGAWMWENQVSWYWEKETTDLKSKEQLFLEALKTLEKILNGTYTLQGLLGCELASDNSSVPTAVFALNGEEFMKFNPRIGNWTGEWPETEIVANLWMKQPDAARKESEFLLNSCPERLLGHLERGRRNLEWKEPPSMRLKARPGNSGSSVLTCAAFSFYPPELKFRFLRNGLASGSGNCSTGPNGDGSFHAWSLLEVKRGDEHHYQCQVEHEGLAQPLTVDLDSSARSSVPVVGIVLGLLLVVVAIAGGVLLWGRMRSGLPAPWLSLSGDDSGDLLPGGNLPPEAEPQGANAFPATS
# T1 sequence (b2m, looked up): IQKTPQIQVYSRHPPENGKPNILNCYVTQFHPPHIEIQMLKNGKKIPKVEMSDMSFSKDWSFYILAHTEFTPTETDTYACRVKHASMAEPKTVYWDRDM
# Assays:
# [1] = biological target: T2, human FcRn on HEK293 cells (human, UniProt P55899 24-365; P61769 21-119); test: FACS on hFcRn-overexpressing HEK293 cells at pH 7.4, Alexa488 anti-human goat antibody; MFI relative to hIgG1
# T2 construct: whole, on cells; also called hFcRn
# T2 sequence (P55899 24-365, chain 1 of 2): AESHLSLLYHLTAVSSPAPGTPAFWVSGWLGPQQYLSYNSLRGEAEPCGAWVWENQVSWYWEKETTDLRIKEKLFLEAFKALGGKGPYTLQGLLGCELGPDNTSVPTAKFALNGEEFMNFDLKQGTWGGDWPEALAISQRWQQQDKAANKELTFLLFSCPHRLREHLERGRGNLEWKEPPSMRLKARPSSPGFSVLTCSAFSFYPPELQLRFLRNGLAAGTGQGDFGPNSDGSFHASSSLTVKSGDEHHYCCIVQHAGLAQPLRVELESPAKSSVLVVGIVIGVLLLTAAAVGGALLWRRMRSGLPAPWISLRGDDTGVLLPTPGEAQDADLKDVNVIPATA
# T2 sequence (P61769 21-119, chain 2 of 2): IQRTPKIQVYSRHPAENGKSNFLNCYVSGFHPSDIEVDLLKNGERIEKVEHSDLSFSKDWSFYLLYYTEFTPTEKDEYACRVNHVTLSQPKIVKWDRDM
# Procedure: In stable HEK293 cells expressing human FcRn, the degrees of binding of antibody to FcRn at various pHs were analyzed using a FACS system. Specifically, 100,000 stable HEK293 cells were washed with PBS and centrifuged in a table top microcentrifuge at 4500 rpm for 5 minutes to obtain pellets. 1 μg of antibody was added to 100 μl of pH 6.0 or pH 7.4PBS/10 mM EDTA. The cell pellets were resuspended in 100 μl of the antibody solution and incubated on ice for 60 minutes. The cells were washed once with 150 μl of buffer having pH difference, and then pellets were obtained therefrom. Alexa488-labeled anti-human antibody goat antibody (1 mg/ml) was diluted at 1:20 in buffer having pH difference, and the pellets were resuspended in 100 μl of the buffer, and then cultured on ice for 60 minutes. The cells were washed once with 150 μl of buffer having pH difference, and pellets were obtained therefrom and resuspended in buffer having pH difference. The suspension was transferred into a tube for FACS analysis. These cells were analyzed by FACS using BD FACSDiva™ v6.1.3 software (BD Bioscience). The results of the analysis were expressed as Mean Fluorescence Intensity (MFI) (see FIG. 2).
# [2] = biological target: T1, mouse FcRn on 3T3-L1 cells; test: FACS on mouse FcRn-expressing 3T3-L1 cells at pH 6.0 and pH 7.4, FITC anti-human IgG goat antibody; MFI relative to hIgG
# Procedure: 3T3-L1 cells stably expressing mouse FcRn were cultured in 10% FCS DMEM medium, and then detached from the culture plate by trypsin treatment. The cells were washed three times with cold binding buffer (PBS, pH 6.0 10 mM EDTA), and then diluted in binding buffer at a concentration of 10⁵ cells/ml. 100 μl of the cell dilution was dispensed into each 1.5-ml tube in such a manner that each tube contained 10⁴ cells, and 1 μl of HL161 antibody (1 mg/ml) was added to the dispensed cells. Next, the cells were incubated on ice. As control antibodies, 1 μl of each of rabbit antibody (Santacruz, sc-66893) and human IgG (Abcam, cat#. 409120), which bind to mouse FcRn, was used. The cells were recovered by centrifugation at 4° C. and 4000 rpm for 5 minutes, after which the cells were washed once with binding buffer and resuspended in 100 μl of binding buffer. As FITC-conjugated secondary antibody, 1 μl of anti-human IgG goat antibody (Invitrogen, Cat*. A11013) was added to the cells. In the case of the experiment using anti-mouse FcRn rabbit antibody, the anti-rabbit antibody was incubated with the cells on ice for 1 hour, and then the cells were recovered by centrifugation at 4° C. and 700 g for 5 minutes, washed once with binding buffer, resuspended in 400 ul of binding buffer and analyzed by FACS to examine the cross-reactivity of the HL161 antibodies with mouse FcRn (see FIG. 4). An experiment at a pH of 7.4 was performed using binding buffer at a pH of 7.4 in the same manner as the experiment using binding buffer at a pH of 6.0. The degree of the binding of each antibody to mouse FcRn was presented as relative MFI based on human IgG.
# [3] = biological target: T2, human FcRn on HEK293 cells; test: FACS competition on hFcRn HEK293 cells at pH 6.0; remaining binding of 100 nM Alexa488-labeled hIgG1 (m14) with 250 nM competitor antibody, percent of the tube without competitor
# Procedure: (§1) In stable HEK293 cells expressing human FcRn, the blocking of the antibody against FcRn was analyzed by FACS. The antibody was diluted in binding buffer (PBS pH 6.0, 10 mM EDTA) at concentrations of 2,000 nM, […] to make 50 μl of dilutions, which were dispensed into tubes. […] Stable HEK293 cells were diluted in binding buffer at a concentration of 2,500,000 cells/ml, and 40 μl of the cell dilution was added to each of the labeled antibody-containing tubes. Thus, a final volume of 100 μl contained 100,000 cells, 100 nM labeled antibody and 1000 nM, 500 nM or 250 nM competitor antibody. The cells were washed once with 150 μl of buffer (pH 6.0), and pellets were obtained therefrom and resuspended in 150 μl of buffer having pH difference. The suspension was transferred into a tube for FACS analysis. The cells were analyzed by FACS using BD FACSDiva™ v6.1.3 software (BD Bioscience). The results of the analysis were expressed as mean fluorescence intensity (MFI).
# (§2) The MFI of the test group was processed after subtracting the MFI (background signal) measured in cells alone.
# [4] = biological target: T2, human FcRn on HEK293 cells; test: FACS competition on hFcRn HEK293 cells at pH 6.0; remaining binding of 100 nM Alexa488-labeled hIgG1 (m14) with 1000 nM competitor antibody, percent of the tube without competitor
# Procedure: as §1, §2
binder,measurement,setting,value
"HL161-11H (antibody, V domains shown, Whole human IgG from pNATAB vectors) VH: QMQLVESGGGLVQPGRSLRLSCAASGFTFSSYAMHWVRQAPGKGLEWVAVISYDGSNKYYADSVKGRFTISRDNSKNTLYLQMNSLRSEDTAVYYCSRGSGGRDAFDVWGQGTMITVSS VL: DIQMTQSPSTLSASVGDRVTITCRASQSISSRLAWYQQKPGKAPKLLIYKASSLETGVPSRFSGSGSGTEFTLTISSLQPDDFATYYCQQTNSFPLTFGGGTKVEIK",Relative MFI (Fold),[1],10.6 fold
same,binding result,[2],no binding
same,Relative MFI(%) at 250nM,[3],75.4%
same,Relative MFI(%) at 1000nM,[4],51.8%
